Laboratory results: article doi:10.1101/2025.10.06.680828 (bioRxiv, 2025)

B1: human Drp1 isoform 5 (natural protein)
chain: MEALIPVINKLQDVFNTVGADIIQLPQIVVVGTQSSGKSSVLESLVGRDLLPRGTGIVTRRPLILQLVHVSQEDKRKTTGEENDPATWKNSRHLSKGVEAEEWGKFLHTKNKLYTDFDEIRQEIENETERISGNNKGVSPEPIHLKIFSPNVVNLTLVDLPGMTKVPVGDQPKDIELQIRELILRFISNPNSIILAVTAANTDMATSEALKISREVDPDGRRTLAVITKLDLMDAGTDAMDVLMGRVIPVKLGIIGVVNRSQLDINNKKSVTDSIRDEYAFLQKKYPSLANRNGTKYLARTLNRLLMHHIRDCLPELKTRINVLAAQYQSLLNSYGEPVDDKSATLLQLITKFATEYCNTIEGTAKYIETSELCGGARICYIFHETFGRTLESVDPLGGLNTIDILTAIRNATGPRPALFVPEVSFELLVKRQIKRLEEPSLRCVELVHEEMQRIIQHCSNYSTQELLRFPKLHDAIVEVVTCLLRKRLPVTNEMVHNLVAIELAYINTKHPDFADACGLMNNNIEEQRRNRLARELPSAVSRDKSSKVPSALAPASQEPSPAASAEADGKLIQDSRRETKNVASGGGGVGDGVQEPTTGNWRGMLKTSKAEELLAEEKSKPIPIMPASPQKGHAVNLLDVPVPVARKLSAREQRDCEVIERLIKSYFLIVRKNIQDSVPKAVMHFLVNHVKDTLQSELVGQLYKSSLLDDLLTESEDMAQRRKEAADMLKALQGASQIIAEIRETHLW
B2: human Drp1 isoform 6 (natural protein)
chain: MEALIPVINKLQDVFNTVGADIIQLPQIVVVGTQSSGKSSVLESLVGRDLLPRGTGIVTRRPLILQLVHVSQEDKRKTTGEENDPATWKNSRHLSKGVEAEEWGKFLHTKNKLYTDFDEIRQEIENETERISGNNKGVSPEPIHLKIFSPNVVNLTLVDLPGMTKVPVGDQPKDIELQIRELILRFISNPNSIILAVTAANTDMATSEALKISREVDPDGRRTLAVITKLDLMDAGTDAMDVLMGRVIPVKLGIIGVVNRSQLDINNKKSVTDSIRDEYAFLQKKYPSLANRNGTKYLARTLNRLLMHHIRDCLPELKTRINVLAAQYQSLLNSYGEPVDDKSATLLQLITKFATEYCNTIEGTAKYIETSELCGGARICYIFHETFGRTLESVDPLGGLNTIDILTAIRNATGPRPALFVPEVSFELLVKRQIKRLEEPSLRCVELVHEEMQRIIQHCSNYSTQELLRFPKLHDAIVEVVTCLLRKRLPVTNEMVHNLVAIELAYINTKHPDFADACGLMNNNIEEQRRNRLARELPSAVSRDKSSKVPSALAPASQEPSPAASAEADGKVASGGGGVGDGVQEPTTGNWRGMLKTSKAEELLAEEKSKPIPIMPASPQKGHAVNLLDVPVPVARKLSAREQRDCEVIERLIKSYFLIVRKNIQDSVPKAVMHFLVNHVKDTLQSELVGQLYKSSLLDDLLTESEDMAQRRKEAADMLKALQGASQIIAEIRETHLW
B3: human Drp1 isoform 3 (natural protein)
chain: MEALIPVINKLQDVFNTVGADIIQLPQIVVVGTQSSGKSSVLESLVGRDLLPRGTGIVTRRPLILQLVHVSQEDKRKTTGEENGVEAEEWGKFLHTKNKLYTDFDEIRQEIENETERISGNNKGVSPEPIHLKIFSPNVVNLTLVDLPGMTKVPVGDQPKDIELQIRELILRFISNPNSIILAVTAANTDMATSEALKISREVDPDGRRTLAVITKLDLMDAGTDAMDVLMGRVIPVKLGIIGVVNRSQLDINNKKSVTDSIRDEYAFLQKKYPSLANRNGTKYLARTLNRLLMHHIRDCLPELKTRINVLAAQYQSLLNSYGEPVDDKSATLLQLITKFATEYCNTIEGTAKYIETSELCGGARICYIFHETFGRTLESVDPLGGLNTIDILTAIRNATGPRPALFVPEVSFELLVKRQIKRLEEPSLRCVELVHEEMQRIIQHCSNYSTQELLRFPKLHDAIVEVVTCLLRKRLPVTNEMVHNLVAIELAYINTKHPDFADACGLMNNNIEEQRRNRLARELPSAVSRDKVASGGGGVGDGVQEPTTGNWRGMLKTSKAEELLAEEKSKPIPIMPASPQKGHAVNLLDVPVPVARKLSAREQRDCEVIERLIKSYFLIVRKNIQDSVPKAVMHFLVNHVKDTLQSELVGQLYKSSLLDDLLTESEDMAQRRKEAADMLKALQGASQIIAEIRETHLW
B4: human Drp1 isoform 2 (natural protein)
chain: MEALIPVINKLQDVFNTVGADIIQLPQIVVVGTQSSGKSSVLESLVGRDLLPRGTGIVTRRPLILQLVHVSQEDKRKTTGEENGVEAEEWGKFLHTKNKLYTDFDEIRQEIENETERISGNNKGVSPEPIHLKIFSPNVVNLTLVDLPGMTKVPVGDQPKDIELQIRELILRFISNPNSIILAVTAANTDMATSEALKISREVDPDGRRTLAVITKLDLMDAGTDAMDVLMGRVIPVKLGIIGVVNRSQLDINNKKSVTDSIRDEYAFLQKKYPSLANRNGTKYLARTLNRLLMHHIRDCLPELKTRINVLAAQYQSLLNSYGEPVDDKSATLLQLITKFATEYCNTIEGTAKYIETSELCGGARICYIFHETFGRTLESVDPLGGLNTIDILTAIRNATGPRPALFVPEVSFELLVKRQIKRLEEPSLRCVELVHEEMQRIIQHCSNYSTQELLRFPKLHDAIVEVVTCLLRKRLPVTNEMVHNLVAIELAYINTKHPDFADACGLMNNNIEEQRRNRLARELPSAVSRDKLIQDSRRETKNVASGGGGVGDGVQEPTTGNWRGMLKTSKAEELLAEEKSKPIPIMPASPQKGHAVNLLDVPVPVARKLSAREQRDCEVIERLIKSYFLIVRKNIQDSVPKAVMHFLVNHVKDTLQSELVGQLYKSSLLDDLLTESEDMAQRRKEAADMLKALQGASQIIAEIRETHLW
B5: human Drp1 isoform 4 (natural protein)
chain: MEALIPVINKLQDVFNTVGADIIQLPQIVVVGTQSSGKSSVLESLVGRDLLPRGTGIVTRRPLILQLVHVSQEDKRKTTGEENGVEAEEWGKFLHTKNKLYTDFDEIRQEIENETERISGNNKGVSPEPIHLKIFSPNVVNLTLVDLPGMTKVPVGDQPKDIELQIRELILRFISNPNSIILAVTAANTDMATSEALKISREVDPDGRRTLAVITKLDLMDAGTDAMDVLMGRVIPVKLGIIGVVNRSQLDINNKKSVTDSIRDEYAFLQKKYPSLANRNGTKYLARTLNRLLMHHIRDCLPELKTRINVLAAQYQSLLNSYGEPVDDKSATLLQLITKFATEYCNTIEGTAKYIETSELCGGARICYIFHETFGRTLESVDPLGGLNTIDILTAIRNATGPRPALFVPEVSFELLVKRQIKRLEEPSLRCVELVHEEMQRIIQHCSNYSTQELLRFPKLHDAIVEVVTCLLRKRLPVTNEMVHNLVAIELAYINTKHPDFADACGLMNNNIEEQRRNRLARELPSAVSRDKSSKVPSALAPASQEPSPAASAEADGKVASGGGGVGDGVQEPTTGNWRGMLKTSKAEELLAEEKSKPIPIMPASPQKGHAVNLLDVPVPVARKLSAREQRDCEVIERLIKSYFLIVRKNIQDSVPKAVMHFLVNHVKDTLQSELVGQLYKSSLLDDLLTESEDMAQRRKEAADMLKALQGASQIIAEIRETHLW
B6: human Drp1 isoform 8 (natural protein)
chain: MEALIPVINKLQDVFNTVGADIIQLPQIVVVGTQSSGKSSVLESLVGRDLLPRGTGIVTRRPLILQLVHVSQEDKRKTTGEENDPATWKNSRHLSKGVEAEEWGKFLHTKNKLYTDFDEIRQEIENETERISGNNKGVSPEPIHLKIFSPNVVNLTLVDLPGMTKVPVGDQPKDIELQIRELILRFISNPNSIILAVTAANTDMATSEALKISREVDPDGRRTLAVITKLDLMDAGTDAMDVLMGRVIPVKLGIIGVVNRSQLDINNKKSVTDSIRDEYAFLQKKYPSLANRNGTKYLARTLNRLLMHHIRDCLPELKTRINVLAAQYQSLLNSYGEPVDDKSATLLQLITKFATEYCNTIEGTAKYIETSELCGGARICYIFHETFGRTLESVDPLGGLNTIDILTAIRNATGPRPALFVPEVSFELLVKRQIKRLEEPSLRCVELVHEEMQRIIQHCSNYSTQELLRFPKLHDAIVEVVTCLLRKRLPVTNEMVHNLVAIELAYINTKHPDFADACGLMNNNIEEQRRNRLARELPSAVSRDKVASGGGGVGDGVQEPTTGNWRGMLKTSKAEELLAEEKSKPIPIMPASPQKGHAVNLLDVPVPVARKLSAREQRDCEVIERLIKSYFLIVRKNIQDSVPKAVMHFLVNHVKDTLQSELVGQLYKSSLLDDLLTESEDMAQRRKEAADMLKALQGASQIIAEIRETHLW

Molecular target: the molecule itself
Experiment: mass photometry

Protein | stoichiometry N
B1 | 2
B2 | 2
B3 | 2
B4 | 2
B5 | 2
B6 | 2
